Laboratory results taken from patent US20160200782A1.
One block for each substance: values may come before it.

What was measured:
Assay in all cases: cell-based or functional assay
cKit(h) (human) = cKit(h) (human) (UniProt P10721)
PKBα(h) (human) = PKBα(h) (human) (UniProt P31749)
CDK6/cyclinD3(h) (human) = CDK6/cyclinD3(h) (human) (UniProt Q00534)
ACK1(h) (human) = ACK1(h) (human) (UniProt Q07912)
DMPK(h) (human) = DMPK(h) (human) (UniProt Q09013)
ULK2(h) (human) = ULK2(h) (human) (UniProt Q8IYT8)
EphA1(h) (human) = EphA1(h) (human) (UniProt P21709)
MST3(h) (human) = MST3(h) (human) (UniProt Q9Y6E0)
IKKβ(h) (human) = IKKβ(h) (human) (UniProt O14920)
Ab1(Y253F)(h) (human) = Ab1(Y253F)(h) (human) (UniProt P00519)
CK1δ(h) (human) = CK1δ(h) (human) (UniProt P48730)
Chain of CK1δ(h) (human) (P48730 1-294, stated change not applied): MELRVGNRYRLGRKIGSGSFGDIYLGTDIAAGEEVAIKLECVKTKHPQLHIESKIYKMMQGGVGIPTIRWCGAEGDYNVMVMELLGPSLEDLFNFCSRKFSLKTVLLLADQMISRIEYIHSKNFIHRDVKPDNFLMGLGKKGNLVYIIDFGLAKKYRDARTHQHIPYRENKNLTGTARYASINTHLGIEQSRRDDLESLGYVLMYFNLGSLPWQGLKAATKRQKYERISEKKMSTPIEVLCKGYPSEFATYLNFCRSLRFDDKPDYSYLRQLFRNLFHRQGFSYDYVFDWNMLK

NEK3(h) (human) = NEK3(h) (human) (UniProt P51956)
CK2(h) (human) = target: CK2(h) (human)
cKit(D816V)(h) (human) = cKit(D816V)(h) (human) (UniProt P10721)
Chain of cKit(D816V)(h) (human) (P10721 544-976 D816V limits assumed): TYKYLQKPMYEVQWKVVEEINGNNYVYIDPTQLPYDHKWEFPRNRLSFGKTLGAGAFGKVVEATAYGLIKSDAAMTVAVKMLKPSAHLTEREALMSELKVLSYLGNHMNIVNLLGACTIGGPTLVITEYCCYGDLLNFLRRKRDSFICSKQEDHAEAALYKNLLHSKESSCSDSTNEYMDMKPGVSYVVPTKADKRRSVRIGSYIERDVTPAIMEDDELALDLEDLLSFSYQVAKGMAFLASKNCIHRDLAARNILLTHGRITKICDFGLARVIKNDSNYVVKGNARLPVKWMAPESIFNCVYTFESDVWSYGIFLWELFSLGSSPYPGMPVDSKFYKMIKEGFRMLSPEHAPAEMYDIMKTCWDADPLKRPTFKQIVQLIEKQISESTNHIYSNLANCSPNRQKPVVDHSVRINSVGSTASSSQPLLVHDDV

Plk3(h) (human) = Plk3(h) (human) (UniProt Q9H4B4)
Chain of Plk3(h) (human) (Q9H4B4 whole entry): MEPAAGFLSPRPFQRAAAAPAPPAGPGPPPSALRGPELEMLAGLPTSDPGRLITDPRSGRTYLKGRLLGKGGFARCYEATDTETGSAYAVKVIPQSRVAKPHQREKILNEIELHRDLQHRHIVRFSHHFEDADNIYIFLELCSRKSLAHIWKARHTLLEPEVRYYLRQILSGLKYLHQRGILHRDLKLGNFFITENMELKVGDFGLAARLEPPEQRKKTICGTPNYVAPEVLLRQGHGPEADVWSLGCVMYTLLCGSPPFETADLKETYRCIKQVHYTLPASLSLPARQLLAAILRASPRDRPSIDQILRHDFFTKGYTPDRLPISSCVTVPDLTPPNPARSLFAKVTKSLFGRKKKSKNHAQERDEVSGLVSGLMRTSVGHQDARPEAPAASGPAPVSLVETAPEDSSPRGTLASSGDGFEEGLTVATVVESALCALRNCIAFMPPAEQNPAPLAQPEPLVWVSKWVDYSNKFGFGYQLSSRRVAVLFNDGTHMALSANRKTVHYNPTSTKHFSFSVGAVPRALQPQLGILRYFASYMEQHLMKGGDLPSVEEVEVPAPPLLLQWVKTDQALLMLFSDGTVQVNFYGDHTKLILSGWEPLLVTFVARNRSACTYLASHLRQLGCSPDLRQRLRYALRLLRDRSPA

MAPKAP-K2(h) (human) = MAPKAP-K2(h) (human) (UniProt P49137)
Chain of MAPKAP-K2(h) (human) (P49137 46-400 limits assumed): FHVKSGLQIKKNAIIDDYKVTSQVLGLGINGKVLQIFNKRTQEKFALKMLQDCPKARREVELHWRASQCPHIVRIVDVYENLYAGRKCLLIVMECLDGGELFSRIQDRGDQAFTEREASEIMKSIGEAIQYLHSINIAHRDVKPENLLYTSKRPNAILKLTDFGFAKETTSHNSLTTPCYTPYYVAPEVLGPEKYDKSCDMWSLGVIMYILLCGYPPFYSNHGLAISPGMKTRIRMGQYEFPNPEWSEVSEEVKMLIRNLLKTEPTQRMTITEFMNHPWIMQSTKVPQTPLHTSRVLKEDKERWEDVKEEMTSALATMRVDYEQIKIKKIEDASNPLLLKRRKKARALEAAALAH

CDK1/cyclinB(h) (human) = CDK1/cyclinB(h) (human) (UniProt P06493)
Txk(h) (human) = Txk(h) (human) (UniProt P42681)
Chain of Txk(h) (human) (P42681 whole entry): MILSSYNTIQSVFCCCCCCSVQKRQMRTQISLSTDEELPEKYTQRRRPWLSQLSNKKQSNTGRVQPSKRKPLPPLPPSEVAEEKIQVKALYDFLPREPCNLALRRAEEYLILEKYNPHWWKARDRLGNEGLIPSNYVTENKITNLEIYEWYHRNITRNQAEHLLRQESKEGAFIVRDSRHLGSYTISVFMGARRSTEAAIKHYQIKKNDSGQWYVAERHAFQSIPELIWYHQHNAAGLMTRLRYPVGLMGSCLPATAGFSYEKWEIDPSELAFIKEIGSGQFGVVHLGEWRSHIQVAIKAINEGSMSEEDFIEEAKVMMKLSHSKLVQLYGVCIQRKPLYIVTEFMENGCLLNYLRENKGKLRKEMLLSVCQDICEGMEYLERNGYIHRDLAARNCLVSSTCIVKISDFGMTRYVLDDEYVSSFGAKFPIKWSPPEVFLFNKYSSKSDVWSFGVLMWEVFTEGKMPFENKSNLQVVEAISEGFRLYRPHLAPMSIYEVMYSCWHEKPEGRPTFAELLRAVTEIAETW

PDGFRα(V561D)(h) (human) = PDGFRα(V561D)(h) (human) (UniProt P16234)
Chain of PDGFRα(V561D)(h) (human) (P16234 550-1089 V561D limits assumed): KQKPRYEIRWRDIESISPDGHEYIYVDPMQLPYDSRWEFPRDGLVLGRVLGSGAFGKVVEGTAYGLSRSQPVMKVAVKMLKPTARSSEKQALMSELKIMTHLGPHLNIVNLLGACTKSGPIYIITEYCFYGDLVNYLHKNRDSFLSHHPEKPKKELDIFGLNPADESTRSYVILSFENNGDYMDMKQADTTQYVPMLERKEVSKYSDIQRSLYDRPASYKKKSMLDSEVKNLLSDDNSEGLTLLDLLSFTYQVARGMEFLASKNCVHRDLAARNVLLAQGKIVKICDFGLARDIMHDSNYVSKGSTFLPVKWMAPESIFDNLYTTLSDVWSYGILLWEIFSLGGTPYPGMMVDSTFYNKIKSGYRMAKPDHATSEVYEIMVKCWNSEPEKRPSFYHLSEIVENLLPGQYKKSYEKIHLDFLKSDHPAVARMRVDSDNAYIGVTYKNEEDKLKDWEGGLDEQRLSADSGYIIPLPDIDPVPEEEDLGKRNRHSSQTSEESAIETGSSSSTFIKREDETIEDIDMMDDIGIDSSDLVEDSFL

JNK3(h) (human) = JNK3(h) (human) (UniProt P53779)
TBK1(h) (human) = TBK1(h) (human) (UniProt Q9UHD2)
Rsk1(h) (human) = Rsk1(h) (human) (UniProt Q15418)
Met(h) (human) = Met(h) (human) (UniProt P08581)
Ab1(h) (human) = Ab1(h) (human) (UniProt P00519)
Pim-1(h) (human) = Pim-1(h) (human) (UniProt P11309)
PKCδ(h) (human) = PKCδ(h) (human) (UniProt Q05655)
EphB1(h) (human) = EphB1(h) (human) (UniProt P54762)
GSK3α(h) (human) = GSK3α(h) (human) (UniProt P49840)
Tie2(Y897S)(h) (human) = Tie2(Y897S)(h) (human) (UniProt Q02763)
WNK2(h) (human) = WNK2(h) (human) (UniProt Q9Y3S1)
cKit(V560G)(h) (human) = cKit(V560G)(h) (human) (UniProt P10721)
Chain of cKit(V560G)(h) (human) (P10721 544-976 V560G limits assumed): as the sequence (P10721 544-976 D816V limits assumed) above, with V17G, V273D counted along it

DYRK2(h) (human) = DYRK2(h) (human) (UniProt Q92630)
DRAK1(h) (human) = DRAK1(h) (human) (UniProt Q9UEE5)
ALK(h) (human) = ALK(h) (human) (UniProt Q9UM73)
cKit(V654A)(h) (human) = cKit(V654A)(h) (human) (UniProt P10721)
Chain of cKit(V654A)(h) (human) (P10721 544-976 V654A limits assumed): as the sequence (P10721 544-976 D816V limits assumed) above, with V111A, V273D counted along it

EphA5(h) (human) = EphA5(h) (human) (UniProt P54756)
Chain of EphA5(h) (human) (P54756 595-1037 limits assumed): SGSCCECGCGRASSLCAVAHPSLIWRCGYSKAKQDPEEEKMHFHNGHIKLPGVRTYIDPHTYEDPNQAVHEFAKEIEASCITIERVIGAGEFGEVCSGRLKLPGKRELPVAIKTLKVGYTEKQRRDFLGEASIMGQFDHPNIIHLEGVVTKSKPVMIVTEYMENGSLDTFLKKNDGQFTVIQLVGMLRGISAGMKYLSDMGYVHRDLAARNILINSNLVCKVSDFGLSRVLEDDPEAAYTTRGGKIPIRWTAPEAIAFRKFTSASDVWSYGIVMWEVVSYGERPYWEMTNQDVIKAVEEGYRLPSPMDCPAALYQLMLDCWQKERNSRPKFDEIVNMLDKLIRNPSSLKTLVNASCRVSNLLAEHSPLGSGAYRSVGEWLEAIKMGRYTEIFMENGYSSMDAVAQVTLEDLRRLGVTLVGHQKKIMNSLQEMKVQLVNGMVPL

Mnk2(h) (human) = Mnk2(h) (human) (UniProt Q9HBH9)
Hck(h) (human) = Hck(h) (human) (UniProt P08631)
SGK2(h) (human) = SGK2(h) (human) (UniProt Q9HBY8)
CaMKIV(h) (human) = CaMKIV(h) (human) (UniProt Q16566)
Fyn(h) (human) = Fyn(h) (human) (UniProt P06241)
PKCε(h) (human) = PKCε(h) (human) (UniProt Q02156)
DAPK2(h) (human) = DAPK2(h) (human) (UniProt Q9UIK4)
Haspin(h) (human) = Haspin(h) (human) (UniProt Q8TF76)
Flt4(h) (human) = Flt4(h) (human) (UniProt P35916)
SRPK1(h) (human) = SRPK1(h) (human) (UniProt Q96SB4)
SAPK2b(h) (human) = SAPK2b(h) (human) (UniProt Q15759)
TrkB(h) (human) = TrkB(h) (human) (UniProt Q16620)
CDK2/cyclinE(h) (human) = CDK2/cyclinE(h) (human) (UniProt P24941)
Rsk3(h) (human) = Rsk3(h) (human) (UniProt Q15349)
Chain of Rsk3(h) (human) (Q15349 whole entry): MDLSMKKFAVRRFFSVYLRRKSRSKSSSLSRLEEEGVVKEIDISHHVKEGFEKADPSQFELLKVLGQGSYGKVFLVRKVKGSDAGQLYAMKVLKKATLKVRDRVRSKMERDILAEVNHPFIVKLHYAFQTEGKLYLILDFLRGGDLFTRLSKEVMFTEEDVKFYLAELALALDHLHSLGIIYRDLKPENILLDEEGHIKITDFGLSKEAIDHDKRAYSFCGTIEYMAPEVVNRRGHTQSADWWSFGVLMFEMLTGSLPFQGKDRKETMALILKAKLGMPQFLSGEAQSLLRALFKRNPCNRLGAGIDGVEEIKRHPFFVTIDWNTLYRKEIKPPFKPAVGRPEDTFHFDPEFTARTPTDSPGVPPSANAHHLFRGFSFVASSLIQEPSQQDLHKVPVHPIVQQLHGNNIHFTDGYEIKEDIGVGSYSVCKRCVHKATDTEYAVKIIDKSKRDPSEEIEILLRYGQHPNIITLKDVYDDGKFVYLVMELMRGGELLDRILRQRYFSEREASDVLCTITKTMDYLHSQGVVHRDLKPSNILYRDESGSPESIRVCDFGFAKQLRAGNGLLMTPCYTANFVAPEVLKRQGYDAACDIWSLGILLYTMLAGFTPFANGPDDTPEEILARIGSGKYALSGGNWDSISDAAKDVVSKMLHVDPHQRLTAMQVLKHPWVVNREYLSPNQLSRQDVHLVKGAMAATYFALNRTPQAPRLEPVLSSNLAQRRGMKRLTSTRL

[1] = target: EGFR(T790M,L858R)(h) (human) (UniProt P00533)
MARK1(h) (human) = MARK1(h) (human) (UniProt Q9P0L2)
FGFR3(h) (human) = FGFR3(h) (human) (UniProt P22607)
FGFR4(h) (human) = FGFR4(h) (human) (UniProt P22455)
Chain of FGFR4(h) (human) (P22455 460-802 limits assumed): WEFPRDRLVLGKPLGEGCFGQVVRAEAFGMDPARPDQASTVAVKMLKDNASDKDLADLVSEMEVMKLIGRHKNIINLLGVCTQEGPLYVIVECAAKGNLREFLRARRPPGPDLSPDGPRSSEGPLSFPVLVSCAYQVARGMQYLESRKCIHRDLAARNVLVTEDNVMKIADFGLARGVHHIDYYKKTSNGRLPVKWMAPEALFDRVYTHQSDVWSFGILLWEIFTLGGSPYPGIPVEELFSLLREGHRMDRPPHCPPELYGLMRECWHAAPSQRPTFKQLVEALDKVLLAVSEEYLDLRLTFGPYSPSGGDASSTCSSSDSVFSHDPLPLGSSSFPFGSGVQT

Syk(h) (human) = Syk(h) (human) (UniProt P43405)
TAO2(h) (human) = TAO2(h) (human) (UniProt Q9UL54)

Chain of PKBα(h) (human) (P31749 whole entry): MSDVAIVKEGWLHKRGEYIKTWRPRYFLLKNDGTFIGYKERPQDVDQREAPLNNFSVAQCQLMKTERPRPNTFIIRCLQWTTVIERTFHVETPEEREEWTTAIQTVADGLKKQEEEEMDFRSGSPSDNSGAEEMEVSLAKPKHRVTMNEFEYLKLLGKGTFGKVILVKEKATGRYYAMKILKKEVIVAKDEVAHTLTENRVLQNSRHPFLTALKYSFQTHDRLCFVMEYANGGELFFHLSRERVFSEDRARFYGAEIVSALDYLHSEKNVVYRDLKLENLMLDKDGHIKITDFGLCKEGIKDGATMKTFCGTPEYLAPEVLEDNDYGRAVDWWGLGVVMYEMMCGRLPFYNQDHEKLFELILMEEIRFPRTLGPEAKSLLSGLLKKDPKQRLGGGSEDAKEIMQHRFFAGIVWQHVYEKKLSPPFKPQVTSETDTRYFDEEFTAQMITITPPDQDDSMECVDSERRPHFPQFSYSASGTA
Chain of cKit(h) (human) (P10721 544-976 limits assumed): as the sequence (P10721 544-976 D816V limits assumed) above, with V273D counted along it

Substance: MMI-0100 (peptide)
- % activity (cKit(h) (human)): 95%
- % activity (PKBα(h) (human)): 140%
- % activity (CDK6/cyclinD3(h) (human)): 103%
- % activity (ACK1(h) (human)): 106%
- % activity (DMPK(h) (human)): 60%
- % activity (ULK2(h) (human)): 123%
- % activity (EphA1(h) (human)): 114%
- % activity (MST3(h) (human)): 104%
- % activity (IKKβ(h) (human)): 105%
- % activity (Ab1(Y253F)(h) (human)): 104%
- % activity (CK1δ(h) (human)): 115%
- % activity (NEK3(h) (human)): 100%
- % activity (CK2(h) (human)): 90%
- % activity (cKit(D816V)(h) (human)): 117%
- % activity (Plk3(h) (human)): 107%
- % activity (MAPKAP-K2(h) (human)): 19%
- % activity (CDK1/cyclinB(h) (human)): 96%
- % activity (Txk(h) (human)): 87%
- % activity (PDGFRα(V561D)(h) (human)): 58%
- % activity (JNK3(h) (human)): 104%
- % activity (TBK1(h) (human)): 106%
- % activity (Rsk1(h) (human)): 86%
- % activity (Met(h) (human)): 104%
- % activity (Ab1(h) (human)): 136%
- % activity (Pim-1(h) (human)): 44%
- % activity (PKCδ(h) (human)): 100%
- % activity (EphB1(h) (human)): 99%
- % activity (GSK3α(h) (human)): 183%
- % activity (Tie2(Y897S)(h) (human)): 99%
- % activity (WNK2(h) (human)): 95%
- % activity (cKit(V560G)(h) (human)): 94%
- % activity (DYRK2(h) (human)): 99%
- % activity (DRAK1(h) (human)): 47%
- % activity (ALK(h) (human)): 118%
- % activity (cKit(V654A)(h) (human)): 69%
- % activity (EphA5(h) (human)): 110%
- % activity (Mnk2(h) (human)): 94%
- % activity (Hck(h) (human)): 354%
- % activity (SGK2(h) (human)): 103%
- % activity (CaMKIV(h) (human)): 87%
- % activity (Fyn(h) (human)): 71%
- % activity (PKCε(h) (human)): 102%
- % activity (DAPK2(h) (human)): 41%
- % activity (Haspin(h) (human)): 127%
- % activity (Flt4(h) (human)): 135%
- % activity (SRPK1(h) (human)): 69%
- % activity (SAPK2b(h) (human)): 99%
- % activity (TrkB(h) (human)): 4%
- % activity (CDK2/cyclinE(h) (human)): 106%
- % activity (Rsk3(h) (human)): 76%
- % activity [1]: 93%
- % activity (MARK1(h) (human)): 109%
- % activity (FGFR3(h) (human)): 73%
- % activity (FGFR4(h) (human)): 67%
- % activity (Syk(h) (human)): 45%
- % activity (TAO2(h) (human)): 95%

Substance: MMI-0200 (peptide)
- % activity (cKit(h) (human)): 110%
- % activity (PKBα(h) (human)): 110%
- % activity (CDK6/cyclinD3(h) (human)): 100%
- % activity (ACK1(h) (human)): 97%
- % activity (DMPK(h) (human)): 66%
- % activity (ULK2(h) (human)): 132%
- % activity (EphA1(h) (human)): 136%
- % activity (MST3(h) (human)): 95%
- % activity (IKKβ(h) (human)): 109%
- % activity (Ab1(Y253F)(h) (human)): 102%
- % activity (CK1δ(h) (human)): 92%
- % activity (NEK3(h) (human)): 100%
- % activity (CK2(h) (human)): 83%
- % activity (cKit(D816V)(h) (human)): 118%
- % activity (Plk3(h) (human)): 107%
- % activity (MAPKAP-K2(h) (human)): 35%
- % activity (CDK1/cyclinB(h) (human)): 115%
- % activity (Txk(h) (human)): 98%
- % activity (PDGFRα(V561D)(h) (human)): 106%
- % activity (JNK3(h) (human)): 90%
- % activity (TBK1(h) (human)): 98%
- % activity (Rsk1(h) (human)): 102%
- % activity (Met(h) (human)): 71%
- % activity (Ab1(h) (human)): 107%
- % activity (Pim-1(h) (human)): 18%
- % activity (PKCδ(h) (human)): 101%
- % activity (EphB1(h) (human)): 95%
- % activity (GSK3α(h) (human)): 119%
- % activity (Tie2(Y897S)(h) (human)): 85%
- % activity (WNK2(h) (human)): 94%
- % activity (cKit(V560G)(h) (human)): 115%
- % activity (DYRK2(h) (human)): 142%
- % activity (DRAK1(h) (human)): 34%
- % activity (ALK(h) (human)): 95%
- % activity (cKit(V654A)(h) (human)): 113%
- % activity (EphA5(h) (human)): 123%
- % activity (Mnk2(h) (human)): 106%
- % activity (Hck(h) (human)): 107%
- % activity (SGK2(h) (human)): 119%
- % activity (CaMKIV(h) (human)): 71%
- % activity (Fyn(h) (human)): 75%
- % activity (PKCε(h) (human)): 98%
- % activity (DAPK2(h) (human)): 92%
- % activity (Haspin(h) (human)): 71%
- % activity (Flt4(h) (human)): 105%
- % activity (SRPK1(h) (human)): 93%
- % activity (SAPK2b(h) (human)): 95%
- % activity (TrkB(h) (human)): 7%
- % activity (CDK2/cyclinE(h) (human)): 112%
- % activity (Rsk3(h) (human)): 109%
- % activity [1]: 108%
- % activity (MARK1(h) (human)): 102%
- % activity (FGFR3(h) (human)): 208%
- % activity (FGFR4(h) (human)): 75%
- % activity (Syk(h) (human)): 36%
- % activity (TAO2(h) (human)): 93%

- % activity (cKit(h) (human)): 45%
- % activity (PKBα(h) (human)): 30%
- % activity (CDK6/cyclinD3(h) (human)): 23%
- % activity (ACK1(h) (human)): 64%
- % activity (DMPK(h) (human)): 12%
- % activity (ULK2(h) (human)): 124%
- % activity (EphA1(h) (human)): 40%
- % activity (MST3(h) (human)): 4%
- % activity (IKKβ(h) (human)): 71%
- % activity (Ab1(Y253F)(h) (human)): 29%
- % activity (CK1δ(h) (human)): 78%
- % activity (NEK3(h) (human)): 20%
- % activity (CK2(h) (human)): 93%
- % activity (cKit(D816V)(h) (human)): 30%
- % activity (Plk3(h) (human)): 122%
- % activity (MAPKAP-K2(h) (human)): 9%
- % activity (CDK1/cyclinB(h) (human)): 57%
- % activity (Txk(h) (human)): 10%
- % activity (PDGFRα(V561D)(h) (human)): 146%
- % activity (JNK3(h) (human)): 171%
- % activity (TBK1(h) (human)): 16%
- % activity (Rsk1(h) (human)): 34%
- % activity (Met(h) (human)): 27%
- % activity (Ab1(h) (human)): 16%
- % activity (Pim-1(h) (human)): 0%
- % activity (PKCδ(h) (human)): 61%
- % activity (EphB1(h) (human)): 37%
- % activity (GSK3α(h) (human)): 175%
- % activity (Tie2(Y897S)(h) (human)): 80%
- % activity (WNK2(h) (human)): 8%
- % activity (cKit(V560G)(h) (human)): 198%
- % activity (DYRK2(h) (human)): 127%
- % activity (DRAK1(h) (human)): 8%
- % activity (ALK(h) (human)): 12%
- % activity (cKit(V654A)(h) (human)): 223%
- % activity (EphA5(h) (human)): 42%
- % activity (Mnk2(h) (human)): 6%
- % activity (Hck(h) (human)): 78%
- % activity (SGK2(h) (human)): -1%
- % activity (CaMKIV(h) (human)): -1%
- % activity (Fyn(h) (human)): 83%
- % activity (PKCε(h) (human)): 23%
- % activity (DAPK2(h) (human)): 3%
- % activity (Haspin(h) (human)): 25%
- % activity (Flt4(h) (human)): 73%
- % activity (SRPK1(h) (human)): 80%
- % activity (SAPK2b(h) (human)): 42%
- % activity (TrkB(h) (human)): 12%
- % activity (CDK2/cyclinE(h) (human)): 19%
- % activity (Rsk3(h) (human)): 23%
- % activity [1]: 53%
- % activity (MARK1(h) (human)): 110%
- % activity (FGFR3(h) (human)): 10%
- % activity (FGFR4(h) (human)): 3%
- % activity (Syk(h) (human)): 5%
- % activity (TAO2(h) (human)): 15%
Substance: MMI-0500 (peptide)
